Source: IntAct's records for PubMed 30956113

B1: Transmembrane 4 L6 family member 5 (Homo sapiens), O14894 (parent)
chain: MCTGKCARCVGLSLITLCLVCIVANALLLVPNGETSWTNTNHLSLQVWLMGGFIGGGLMVLCPGIAAVRAGGKGCCGAGCCGNRCRMLRSVFSSAFGVLGAIYCLSVSGAGLRNGPRCLMNGEWGYHFEDTAGAYLLNRTLWDRCEAPPRVVPWNVTLFSLLVAASCLEIVLCGIQLVNATIGVFCGDCRKKQDTPH
partner: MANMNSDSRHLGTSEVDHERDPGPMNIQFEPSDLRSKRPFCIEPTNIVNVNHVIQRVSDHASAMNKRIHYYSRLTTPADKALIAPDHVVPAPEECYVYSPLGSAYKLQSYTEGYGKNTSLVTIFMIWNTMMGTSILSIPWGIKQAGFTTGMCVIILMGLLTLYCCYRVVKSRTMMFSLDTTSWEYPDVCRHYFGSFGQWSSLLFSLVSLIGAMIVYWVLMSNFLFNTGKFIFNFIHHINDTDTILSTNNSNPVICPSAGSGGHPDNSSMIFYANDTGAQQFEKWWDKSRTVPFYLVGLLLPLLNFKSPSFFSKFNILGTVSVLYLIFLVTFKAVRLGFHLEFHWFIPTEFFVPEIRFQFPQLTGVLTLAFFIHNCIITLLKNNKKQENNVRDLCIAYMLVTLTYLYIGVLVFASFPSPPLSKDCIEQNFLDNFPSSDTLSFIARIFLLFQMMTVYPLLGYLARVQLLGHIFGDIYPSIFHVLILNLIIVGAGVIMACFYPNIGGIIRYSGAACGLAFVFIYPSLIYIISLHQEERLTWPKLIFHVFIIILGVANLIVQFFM
B2: Transmembrane 4 L6 family member 5 (Homo sapiens), O14894 (parent)
chain: B1 chain
partner: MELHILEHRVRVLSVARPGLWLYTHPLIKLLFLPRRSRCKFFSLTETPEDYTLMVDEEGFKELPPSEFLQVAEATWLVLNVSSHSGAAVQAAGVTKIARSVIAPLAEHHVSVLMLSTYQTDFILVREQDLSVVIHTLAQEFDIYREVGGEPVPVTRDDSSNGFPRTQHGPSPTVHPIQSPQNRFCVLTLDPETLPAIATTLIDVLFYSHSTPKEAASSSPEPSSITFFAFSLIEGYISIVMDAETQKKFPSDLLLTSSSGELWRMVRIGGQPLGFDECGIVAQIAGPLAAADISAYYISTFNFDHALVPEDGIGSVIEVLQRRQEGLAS
B3: Transmembrane 4 L6 family member 5 (Homo sapiens), O14894 (parent)
chain: B1 chain

Variants of: B1
Details: with SLC38A9, Q8NBW4

Row | Variant | effect of a mutation on the interaction
1 | MCTGKCARCVGLSLITLCLVCIVANALLLVPNGETSWTNTNHLSLQVWLMGGFIGGGLMVLCPGIAAVRAGGKGCCGAGCCGNRCRMLRSVFSSAFGVLGAIYCLSVSGAGLRNGPRCLMNGEAGYHFEDTAGAYLLNRTLWDRCEAPPRVVPWNVTLFSLLVAASCLEIVLCGIQLVNATIGVFCGDCRKKQDTPH | with no effect

Variants of: B2
Details: with cast1_human CASTOR1, Q8WTX7

Row | Variant | effect of a mutation on the interaction
2 | MCTGKCARCVGLSLITLCLVCIVANALLLVPNGETSWTNTNHLSLQVWLMGGFIGGGLMVLCPGIAAVRAGGKGCCGAGCCGNRCRMLRSVFSSAFGVLGAIYCLSVSGAGLRNGPRCLMNGEAGYHFEDTAGAYLLNRTLWDRCEAPPRVVPWNVTLFSLLVAASCLEIVLCGIQLVNATIGVFCGDCRKKQDTPH | with no effect

Variants of: B3
Details: with mtor_human MTOR

Row | Variant | effect of a mutation on the interaction
3 | W124A | with no effect
4 | Y126S | with no effect
5 | N138A | with no effect
